Test results from patent US20230250154A1 (CYTONICS, published 2023).

T1: MMP1 (human, UniProt P03956 100-469, limits assumed)
T1 sequence (looked up): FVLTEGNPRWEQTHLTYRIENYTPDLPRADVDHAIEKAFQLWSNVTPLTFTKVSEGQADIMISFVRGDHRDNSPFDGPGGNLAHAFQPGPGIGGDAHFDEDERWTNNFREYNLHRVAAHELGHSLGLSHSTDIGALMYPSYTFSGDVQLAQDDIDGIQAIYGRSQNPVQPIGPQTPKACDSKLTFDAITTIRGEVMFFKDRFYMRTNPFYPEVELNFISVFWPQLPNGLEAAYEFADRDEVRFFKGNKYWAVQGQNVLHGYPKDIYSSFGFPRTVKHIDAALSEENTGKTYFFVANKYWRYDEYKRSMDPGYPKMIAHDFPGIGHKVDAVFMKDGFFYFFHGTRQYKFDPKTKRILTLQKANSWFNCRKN

T2: ADAMTS4 (human, UniProt O75173 213-685, limits assumed)
T2 sequence (looked up): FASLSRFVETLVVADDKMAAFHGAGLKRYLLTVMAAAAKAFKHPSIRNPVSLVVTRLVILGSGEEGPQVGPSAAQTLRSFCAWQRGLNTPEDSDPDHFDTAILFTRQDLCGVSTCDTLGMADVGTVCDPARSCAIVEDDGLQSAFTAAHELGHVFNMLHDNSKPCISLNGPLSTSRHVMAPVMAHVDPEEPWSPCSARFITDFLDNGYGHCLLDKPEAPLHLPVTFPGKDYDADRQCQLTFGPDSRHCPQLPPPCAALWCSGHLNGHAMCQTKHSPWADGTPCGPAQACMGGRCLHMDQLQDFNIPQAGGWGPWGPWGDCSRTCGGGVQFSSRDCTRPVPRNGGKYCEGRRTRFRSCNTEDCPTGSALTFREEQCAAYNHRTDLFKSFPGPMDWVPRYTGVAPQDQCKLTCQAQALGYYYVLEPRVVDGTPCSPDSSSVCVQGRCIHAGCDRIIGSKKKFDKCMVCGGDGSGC

T3: ADAMTS5 (human, UniProt Q9UNA0 262-622, limits assumed)
T3 sequence (looked up): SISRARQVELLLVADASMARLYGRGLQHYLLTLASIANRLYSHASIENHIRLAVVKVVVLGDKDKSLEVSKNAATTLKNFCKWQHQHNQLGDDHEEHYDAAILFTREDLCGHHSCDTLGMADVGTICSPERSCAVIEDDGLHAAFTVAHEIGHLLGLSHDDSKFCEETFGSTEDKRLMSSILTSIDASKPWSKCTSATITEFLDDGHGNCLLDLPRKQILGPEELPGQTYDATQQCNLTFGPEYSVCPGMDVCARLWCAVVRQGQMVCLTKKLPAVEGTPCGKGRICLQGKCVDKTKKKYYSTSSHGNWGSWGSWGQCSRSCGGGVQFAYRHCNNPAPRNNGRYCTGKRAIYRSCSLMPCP

T4: MMP2 (human, UniProt P08253 110-660, limits assumed)
T4 sequence (looked up): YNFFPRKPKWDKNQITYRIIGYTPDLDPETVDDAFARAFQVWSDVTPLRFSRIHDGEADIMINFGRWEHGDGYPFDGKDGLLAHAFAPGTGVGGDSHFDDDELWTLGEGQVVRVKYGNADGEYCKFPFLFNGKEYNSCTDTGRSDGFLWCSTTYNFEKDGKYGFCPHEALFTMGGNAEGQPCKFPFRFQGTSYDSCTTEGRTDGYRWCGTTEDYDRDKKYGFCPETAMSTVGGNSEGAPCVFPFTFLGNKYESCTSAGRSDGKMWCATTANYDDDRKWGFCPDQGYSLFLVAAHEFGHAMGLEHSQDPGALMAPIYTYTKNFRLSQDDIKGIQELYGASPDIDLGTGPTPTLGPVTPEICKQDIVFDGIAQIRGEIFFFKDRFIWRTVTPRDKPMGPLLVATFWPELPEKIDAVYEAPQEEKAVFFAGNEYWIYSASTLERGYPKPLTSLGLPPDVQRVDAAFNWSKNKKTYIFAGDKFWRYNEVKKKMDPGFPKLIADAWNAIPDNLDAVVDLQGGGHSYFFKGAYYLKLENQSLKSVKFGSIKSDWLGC

T5: Cathepsin G (UniProt P08311 21-244)
T5 sequence (looked up): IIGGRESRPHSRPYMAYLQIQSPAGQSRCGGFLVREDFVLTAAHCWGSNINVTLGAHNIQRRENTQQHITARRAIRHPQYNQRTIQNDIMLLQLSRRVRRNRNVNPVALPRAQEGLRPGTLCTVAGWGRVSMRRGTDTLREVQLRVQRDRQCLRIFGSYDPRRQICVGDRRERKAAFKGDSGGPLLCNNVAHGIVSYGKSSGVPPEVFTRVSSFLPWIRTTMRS


Key:
Assay in all cases: cell-based or functional assay
MMP1 = biological target: T1, MMP1
MMP9 = MMP9 (human, UniProt P14780 107-707, limits assumed)
ADAMTS4 = biological target: T2, ADAMTS4
MMP12 = MMP12 (human, UniProt P39900 106-470, limits assumed)
ADAMTS5 = biological target: T3, ADAMTS5
MMP8 = MMP8 (human, UniProt P22894 101-467, limits assumed)
MMP2 = biological target: T4, MMP2
MMP13 = MMP13 (human, UniProt P45452 104-471, limits assumed)
MMP3 = MMP3 (human, UniProt P08254 100-477, limits assumed)
bovine trypsin = bovine trypsin (bovine, UniProt P00760 24-246)
chymotrypsin = biological target: chymotrypsin
Elastase = biological target: Elastase
Cathepsin G = biological target: T5, Cathepsin G

Chain of bovine trypsin (P00760 24-246): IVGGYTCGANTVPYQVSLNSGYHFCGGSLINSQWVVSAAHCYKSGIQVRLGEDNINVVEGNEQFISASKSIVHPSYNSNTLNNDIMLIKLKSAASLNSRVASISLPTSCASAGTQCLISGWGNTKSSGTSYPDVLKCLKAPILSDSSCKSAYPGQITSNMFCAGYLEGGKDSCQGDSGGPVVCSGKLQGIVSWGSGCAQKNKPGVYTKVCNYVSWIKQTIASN
Chain of MMP8 (P22894 101-467 limits assumed): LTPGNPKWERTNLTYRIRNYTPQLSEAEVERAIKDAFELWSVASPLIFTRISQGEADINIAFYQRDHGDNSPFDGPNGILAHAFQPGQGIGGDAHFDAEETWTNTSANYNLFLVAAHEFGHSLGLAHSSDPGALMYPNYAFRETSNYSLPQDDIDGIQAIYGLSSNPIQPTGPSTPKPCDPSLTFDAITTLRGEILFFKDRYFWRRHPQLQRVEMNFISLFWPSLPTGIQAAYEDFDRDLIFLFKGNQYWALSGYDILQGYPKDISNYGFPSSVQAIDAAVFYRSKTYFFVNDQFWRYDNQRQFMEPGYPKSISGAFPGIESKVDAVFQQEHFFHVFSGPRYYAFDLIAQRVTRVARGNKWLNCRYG
Chain of MMP12 (P39900 106-470 limits assumed): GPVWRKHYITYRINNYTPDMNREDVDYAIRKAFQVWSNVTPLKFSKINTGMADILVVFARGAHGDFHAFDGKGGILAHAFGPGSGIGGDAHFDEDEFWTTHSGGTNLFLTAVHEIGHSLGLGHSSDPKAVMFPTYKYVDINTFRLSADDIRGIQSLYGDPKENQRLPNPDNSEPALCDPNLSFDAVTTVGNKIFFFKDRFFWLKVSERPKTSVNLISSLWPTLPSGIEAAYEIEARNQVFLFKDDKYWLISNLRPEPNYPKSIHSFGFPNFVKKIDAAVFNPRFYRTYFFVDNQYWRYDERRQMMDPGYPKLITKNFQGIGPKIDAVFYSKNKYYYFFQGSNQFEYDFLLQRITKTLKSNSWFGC
Chain of MMP9 (P14780 107-707 limits assumed): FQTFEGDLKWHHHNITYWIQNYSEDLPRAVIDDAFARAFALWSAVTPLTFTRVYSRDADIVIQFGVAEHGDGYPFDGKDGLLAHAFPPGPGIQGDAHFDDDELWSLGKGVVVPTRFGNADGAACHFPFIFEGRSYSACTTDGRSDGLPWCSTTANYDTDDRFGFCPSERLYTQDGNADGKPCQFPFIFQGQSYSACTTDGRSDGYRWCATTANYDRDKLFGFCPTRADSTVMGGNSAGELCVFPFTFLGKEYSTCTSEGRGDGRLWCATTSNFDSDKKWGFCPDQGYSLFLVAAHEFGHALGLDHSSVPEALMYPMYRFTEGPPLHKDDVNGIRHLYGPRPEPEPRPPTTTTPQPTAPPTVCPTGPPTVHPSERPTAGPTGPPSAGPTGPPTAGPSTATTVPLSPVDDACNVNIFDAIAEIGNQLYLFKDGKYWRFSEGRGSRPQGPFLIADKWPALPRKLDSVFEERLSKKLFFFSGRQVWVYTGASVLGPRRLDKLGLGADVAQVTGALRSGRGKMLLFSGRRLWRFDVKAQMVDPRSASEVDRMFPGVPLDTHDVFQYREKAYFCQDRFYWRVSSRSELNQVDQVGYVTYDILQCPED
Chain of MMP3 (P08254 100-477 limits assumed): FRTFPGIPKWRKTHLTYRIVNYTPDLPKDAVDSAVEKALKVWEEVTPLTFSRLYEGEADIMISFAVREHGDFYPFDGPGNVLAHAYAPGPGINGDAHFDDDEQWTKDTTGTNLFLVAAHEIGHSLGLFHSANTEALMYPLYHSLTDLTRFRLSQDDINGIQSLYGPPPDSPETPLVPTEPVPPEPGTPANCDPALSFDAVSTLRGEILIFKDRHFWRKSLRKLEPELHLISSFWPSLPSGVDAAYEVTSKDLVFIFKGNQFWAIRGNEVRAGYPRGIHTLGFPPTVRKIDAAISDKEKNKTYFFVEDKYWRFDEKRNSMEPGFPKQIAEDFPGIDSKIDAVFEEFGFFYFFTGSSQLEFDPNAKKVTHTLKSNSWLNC

Protease Inhibition (% of WT) (MMP1)	Protease Inhibition (% of WT) (MMP9)	Protease Inhibition (% of WT) (ADAMTS4)	Protease Inhibition (% of WT) (MMP12)	Protease Inhibition (% of WT) (ADAMTS5)	Protease Inhibition (% of WT) (MMP8)	Protease Inhibition (% of WT) (MMP2)	Protease Inhibition (% of WT) (MMP13)	Protease Inhibition (% of WT) (MMP3)	Protease Inhibition (% of WT) (bovine trypsin)	Protease Inhibition (% of WT) (chymotrypsin)	Protease Inhibition (% of WT) (Elastase)	Protease Inhibition (% of WT) (Cathepsin G)	Binder
180 % of WT	60 % of WT	70 % of WT	100 % of WT	250 % of WT	350 % of WT	120 % of WT	720 % of WT	170 % of WT	100 % of WT	71 % of WT	75 % of WT		Variant A2M, bait region SEQ ID NO 84 (other) SVSGKPQYMVLVPSLLHTETTEKGCVLLSYLNETVTVSASLESVRGNRSLFTDLEAENDVLHCVAFAVPKSSSNEEVMFLTVQVKGPTQEFKKRTTVMVKNEDSLVFVQTDKSIYKPGQTVKFRVVSMDENFHPLNELIPLVYIQDPKGNRIAQWQSFQLEGGLKQFSFPLSSEPFQGSYKVVVQKKSGGRTEHPFTVEEFVLPKFEVQVTVPKIITILEEEMNVSVCGLYTYGKPVPGHVTVSICRKYSDASDCHGEDSQAFCEKFSGQLNSHGCFYQQVKTKVFQLKRKEYEMKLHTEAQIQEEGTVVELTGRQSSEITRTITKLSFVKVDSHFRQGIPFFGQVRLVDGKGVPIPNKVIFIRGNEANYYSNATTDEHGLVQFSINTTNVMGTSLTVRVNYKDRSPCYGYQWVSEEHEEAHHTAYLVFSPSKSFVHLEPMSHELPCGHTQTVQAHYILNGGTLLGLKKLSFYYLIMAKGGIVRTGTHGLLVKQEDMKGHFSISIPVKSDIAPVARLLIYAVLPTGDVIGDSAKYDVENCLANKVDLSFSPSQSLPASHAHLRVTAAPQSVCALRAVDQSVLLMKPDAELSASSVYNLLPEKDLTGFPGPLNDQDDEDCINRHNVYINGITYTPVSSTNEKDMYSFLEDMGLKAFTNSKIRKPKMCPQLEQYEMHGPEGLRVGKEEEGLGSIPENFFGVSELEGRGSKLRKYFPETWIWDLVVVNSAGVAEVGVTVPDTITEWKAGAFCLSEDAGLGISSTASLRAFQPFFVELTMPYSVIRGEAFTLKATVLNYLPKCIRVSVQLEASPAFLAVPVEKEQAPHCICANGRQTVSWAVTPKSLGNVNFTVSAEALESQELCGTEVPSVPEHGRKDTVIKPLLVEPEGLEKETTFNSLLCPSGGEVSEELSLKLPPNVVEESARASVSVLGDILGSAMQNTQNLLQMPYGCGEQNMVLFAPNIYVLDYLNETQQLTPEIKSKAIGYLNTGYQRQLNYKHYDGSYSTFGERYGRNQGNTWLTAFVLKTFAQARAYIFIDEAHITQALIWLSQRQKDNGCFRSSGSLLNNAIKGGVEDEVTLSAYITIALLEIPLTVTHPVVRNALFCLESAWKTAQEGDHGSHVYTKALLAYAFALAGNQDKRKEVLKSLNEEAVKKDNSVHWERPQKPKAPVGHFYEPQAPSAEVEMTSYVLLAYLTAQPAPTSEDLTSATNIVKWITKQQNAQGGFSSTQDTVVALHALSKYGAATFTRTGKAAQVTIQSSGTFSSKFQVDNNNRLLLQQVSLPELPGEYSMKVTGEGCVYLQTSLKYNILPEKEEFPFALGVQTLPQTCDEPKAHTSFQISLSVSYTGSRSASNMAIVDVKMVSGFIPLKPTVKMLERSNHVSRTEVSSNHVLIYLDKVSNQTLSLFFTVLQDVPVRDLKPAIVKVYDYYETDEFAIAEYNAPCSKDLGNADYKDDDDKGASHHHHHH
283 % of WT	100 % of WT	110 % of WT	124 % of WT	211 % of WT	180 % of WT	109 % of WT	146 % of WT		250 % of WT	100 % of WT	103 % of WT	311 % of WT	Variant A2M, bait region SEQ ID NO 130 (other) SVSGKPQYMVLVPSLLHTETTEKGCVLLSYLNETVTVSASLESVRGNRSLFTDLEAENDVLHCVAFAVPKSSSNEEVMFLTVQVKGPTQEFKKRTTVMVKNEDSLVFVQTDKSIYKPGQTVKFRVVSMDENFHPLNELIPLVYIQDPKGNRIAQWQSFQLEGGLKQFSFPLSSEPFQGSYKVVVQKKSGGRTEHPFTVEEFVLPKFEVQVTVPKIITILEEEMNVSVCGLYTYGKPVPGHVTVSICRKYSDASDCHGEDSQAFCEKFSGQLNSHGCFYQQVKTKVFQLKRKEYEMKLHTEAQIQEEGTVVELTGRQSSEITRTITKLSFVKVDSHFRQGIPFFGQVRLVDGKGVPIPNKVIFIRGNEANYYSNATTDEHGLVQFSINTTNVMGTSLTVRVNYKDRSPCYGYQWVSEEHEEAHHTAYLVFSPSKSFVHLEPMSHELPCGHTQTVQAHYILNGGTLLGLKKLSFYYLIMAKGGIVRTGTHGLLVKQEDMKGHFSISIPVKSDIAPVARLLIYAVLPTGDVIGDSAKYDVENCLANKVDLSFSPSQSLPASHAHLRVTAAPQSVCALRAVDQSVLLMKPDAELSASSVYNLLPEKDLTGFPGPLNDQDDEDCINRHNVYINGITYTPVSSTNEKDMYSFLEDMGLKAFTNSKIRKPKMCPQLEQYEMHGPSEDLVVQIEGEGEGEGIPENFFGVEAIPMSIPTVEEPHTKLRKYFPETWIWDLVVVNSAGVAEVGVTVPDTITEWKAGAFCLSEDAGLGISSTASLRAFQPFFVELTMPYSVIRGEAFTLKATVLNYLPKCIRVSVQLEASPAFLAVPVEKEQAPHCICANGRQTVSWAVTPKSLGNVNFTVSAEALESQELCGTEVPSVPEHGRKDTVIKPLLVEPEGLEKETTFNSLLCPSGGEVSEELSLKLPPNVVEESARASVSVLGDILGSAMQNTQNLLQMPYGCGEQNMVLFAPNIYVLDYLNETQQLTPEIKSKAIGYLNTGYQRQLNYKHYDGSYSTFGERYGRNQGNTWLTAFVLKTFAQARAYIFIDEAHITQALIWLSQRQKDNGCFRSSGSLLNNAIKGGVEDEVTLSAYITIALLEIPLTVTHPVVRNALFCLESAWKTAQEGDHGSHVYTKALLAYAFALAGNQDKRKEVLKSLNEEAVKKDNSVHWERPQKPKAPVGHFYEPQAPSAEVEMTSYVLLAYLTAQPAPTSEDLTSATNIVKWITKQQNAQGGFSSTQDTVVALHALSKYGAATFTRTGKAAQVTIQSSGTFSSKFQVDNNNRLLLQQVSLPELPGEYSMKVTGEGCVYLQTSLKYNILPEKEEFPFALGVQTLPQTCDEPKAHTSFQISLSVSYTGSRSASNMAIVDVKMVSGFIPLKPTVKMLERSNHVSRTEVSSNHVLIYLDKVSNQTLSLFFTVLQDVPVRDLKPAIVKVYDYYETDEFAIAEYNAPCSKDLGNADYKDDDDKGASHHHHHH
